According to patent publication US20030148973A1 (published 2003):

biological target: T1, HLA-A0201 molecules on the surface of T2 cells; assay: T2 cell HLA-A0201 stabilization; 20 µg peptide on 10^6 acid-stripped T2 cells, BB7.2 staining, flow cytometry
T1 construct: whole, on cells; Empty (peptide-stripped) HLA-A0201 on T2 cells; also called HLA-A2
Protocol: Subsequent dissociation of peptides from the HLA class 1 MHC molecules results in the loss of BB7.2 monoclonal antibody binding.
In order to determine whether the identified nonapeptides can be presented by HLA-A0201, T2 cells were propagated in RPMI complete medium (RPMI medium supplemented with 10% heat-inactivated bovine serum, 120.0 units per ml of penicillin G sodium, 120 μg per ml of streptomycin sulphate, and 0.35 mg per ml of L-glutamine). The ability of MAGE-A1 derived peptides to bind and stabilize surface HLA-A0201 molecules on T2 cells was determined utilizing a standard protocol (Deng, Y. (1997) J Immunol 158:1507-1515). The required number of T2 flasks were incubated overnight at 26° C. serum-free culture medium (RPMI medium supplemented with 120.0 units per ml of penicillin G sodium and 0.35 mg per ml of L-glutamine). The next day, cells were washed with RPMI medium (without bovine serum) and then resuspended in denaturing solution (300 mM Glycine in 1% BSA, pH 2.5) for 3 min, in order to strip the existing HLA A2 molecules of endogenous peptide. The stripped T2 cells were washed at once in an excess of RPMI media (without bovine serum) to neutralize the acidic stripping solution. To load the peptide of interest into the HLA-A2 peptide binding groove, 20 μg of specific peptide was pulsed onto 10⁶ denatured T2 cells in 2 ml peptide loading media (RPMI medium supplemented with 120.0 units per ml of penicillin G sodium; 0.35 mg per ml of L-glutamine; 1× sodium pyruvate; 1× non-essential amino acids; 1×2-mercapto-ethanol) for 4 hours at 26° C. The cells were washed in cold 1% BSA in PBS and resuspended in 100 μl of cold 1% BSA in PBS to prevent MHC protein turn over. […] The binding of BB7.2 was detected via the addition of 1.0 μg per test of goat anti-mouse IgG-Fc fluorescein (FITC) conjugate (BETHYL Laboratories Inc). […] The samples were then analyzed by Flow Cytometry, and the results were expressed in units of Fluorescence Index (FI), calculated by the equation: […]

Binder | Fluorescence Index (FI)
LQLVFGIDV (also called Peptide # 3) [MAGE-A1 151] | 0.52 FI
SAYGEPRKL (also called Peptide # 14) [MAGE-A1 230] | 1.61 FI
KVLEYVIKV (also called Peptide # 1) [MAGE-A1 278] | 2.18 FI
